Experimental data published in the RNAGym collection of RNA variant scans (doi:10.7554/elife.80360).

B1: Twister Ribozyme (parent)
chain: AACACUGCCAAUGCCGGUCCCAAGCCCGGAUAAAAGUGGAGGGGGCGG

Variants of: B1
Experiment: self-cleavage, relative activity (ratio to wild type); higher = more cleavage; co-transcriptional

Variant | self-cleavage
G13A C14U | 0.8
G13C A23C | 0.0801
G13C A23G | 0.139
G13C A33C | 0.236
G13C G16U | 0.132
G13C G16C | 0.044
G13C G16A | 0.129
G13U G43A | 0.143
U12C G47C | 0.497
U12C G47U | 0.944
C14A C21U | 0.138
G13A G38U | 0.463
G13C A35U | 0.629
G13C A35G | 0.139
G13C A35C | 0.403
U12C | 0.961
U12G | 0.946
G13U G17A | 0.078
G13U G17U | 0.101
G13U G45A | 0.308
G13U G41U | 0.104
G13U G41A | 0.0904
G13U C20G | 0.1
G13U C20A | 0.0934

Variant | self-cleavage
U12A U18G | 0.106
U12G U37A | 0.576
G13U G44C | 0.488
U12C C26U | 0.333
U12C C26A | 0.658
U12C A34G | 0.821
U12C A34U | 0.886
C14A C15G | 0.31
C14A C15A | 0.885
C14A C15U | 0.746
G13A C25G | 0.0804
G13A C25U | 0.387
G13A C25A | 0.0972
U12C G38C | 0.951
U12C G38A | 0.929
G13A C46G | 0.848
G13A C46A | 0.715
G13U G47U | 0.197
G13U G48C | 0.456
C14A A34C | 0.426
C14A A34G | 0.88
U12C A30C | 0.761
C14A G17U | 0.361
G13U G36C | 0.0949

Variant | self-cleavage
G13U G36A | 0.13
G13A G43C | 0.167
G13A G43U | 0.182
U12C G48A | 0.952
U12C G48C | 1.18
U12C G48U | 1.03
U12A G39U | 0.242
G13A A30U | 0.899
G13A A30C | 0.771
G13C G38U | 0.158
G13C G38A | 0.219
C14A G39C | 0.154
C14A G39U | 0.198
C14A C26G | 0.118
U12G C21U | 0.0878
U12G C21A | 0.0849
U12G C21G | 0.0698
G13A A22G | 0.107
U12G G42C | 0.369
U12C G16A | 0.938
U12C G16U | 0.799
G13C C25A | 0.0747
U12C A33C | 0.876
U12C A33U | 1.01

Variant | self-cleavage
U12C A33G | 1
U12C C46U | 0.957
G13U C19U | 0.0924
G13U C19A | 0.0828
U12G G48C | 0.929
U12G G48A | 0.593
G13C C27A | 0.0712
G13C C27U | 0.0915
U12C A35C | 1.08
G13A U37G | 0.233
G13A U37C | 0.183
G13A U37A | 0.209
G13C G45U | 0.144
U12C C25G | 0.439
U12C C27A | 0.577
U12C C27G | 0.0656
U12G C25G | 0.486
G13C G17C | 0.0805
G13C G17U | 0.114
G13A A32G | 0.882
G13A A32U | 0.961
U12C U31C | 0.938
U12C G45U | 0.973
U12C G45C | 0.584

Variant | self-cleavage
C14A G41U | 0.55
C14A G41A | 0.591
G13C A40C | 0.0965
C14A G36A | 0.651
C14A G36C | 0.351
C14A G36U | 0.221
U12G A33U | 0.868
U12G A33G | 0.809
U12C G42A | 0.42
U12C G42C | 0.486
U12C G42U | 0.331
G13C C15U | 0.0748
G13U C15U | 0.317
G13U C15G | 0.108
G13U C15A | 0.11
G13U G24C | 0.0723
G13C C26U | 0.0884
G13C C26A | 0.0939
C14A G28A | 0.818
C14A G28C | 0.757
C14A G28U | 0.854
U12C G36C | 0.559
U12C G36U | 0.543
G13A G16C | 0.106

Variant | self-cleavage
G13A G16A | 0.352
G13C C14U | 0.408
G13C C14G | 0.334
G13A C15A | 0.46
U12A G44U | 1.05
U12A G44A | 1.04
U12A G44C | 1.19
C14A A33U | 0.908
U12G G17U | 0.239
G13A G47U | 0.446
G13A A23G | 0.0799
G13A A23U | 0.0933
C14A G16A | 0.641
C14A G16U | 0.394
C14A C20U | 0.977
U12G G16U | 0.937
U12G G16A | 0.864
U12C A23G | 0.486
U12C G41U | 0.614
U12A G43U | 0.477
U12A G43A | 0.298
G13U A34C | 0.083
G13U A34U | 0.199
C14A A40U | 0.143

Variant | self-cleavage
C14A A23G | 0.525
C14A A23U | 0.508
U12G C27A | 0.373
U12G C27U | 0.496
U12G C27G | 0.136
U12C C21U | 0.0795
U12C C21G | 0.0654
G13C U18C | 0.0885
U12C U37A | 0.747
U12C U37G | 0.72
G13A G41C | 0.17
G13A G41A | 0.157
G13A G41U | 0.131
G13U C21U | 0.0908
U12G C26A | 0.589
U12G A23G | 0.502
G13C A32G | 0.255
G13C A32C | 0.159
C14A G45U | 0.698
G13C A22G | 0.103
G13C A22U | 0.16
U12G A34C | 0.287
U12G C20A | 0.314
